Assay results as given in patent US20110300138A1 (published 2011).

Tests used:
[1] = target: human TSH receptor (wild type), expressed on transfected CHO cells (human) (UniProt P16473); experiment: cell-based or functional assay
[2] = target: human TSH receptor (full length, wild type) expressed in CHO cells (human) (UniProt P16473); experiment: cell-based or functional assay
[3] = target: human TSH receptor (full length, wild type) expressed on CHO cells (human) (UniProt P16473); experiment: cell-based or functional assay
TSHR260-AP (human) [4] = experiment: TSHR260-AP bridge ELISA (full length TSHR on wells, TSHR260-AP in solution); IgG 0.05 µg/mL diluted in HBD serum
TSHR260-AP (human) [5] = experiment: TSHR260-AP bridge ELISA (full length TSHR on wells, TSHR260-AP in solution); IgG 10 µg/mL diluted in assay buffer
[6] = target: TSHR260-alkaline phosphatase (TSHR260-AP) (human) (UniProt P05187); experiment: TSHR260-AP bridge ELISA, full length TSHR on wells; 10 µg/mL, diluted in HBD

B1: 5C9 IgG (antibody, from another filing, V domains shown)
VH: EVQLVESGGGLIQPGGSLRLSCAASGFTVSSNYMSWVRQAPGKGLEWVSVTYSGGSTSYADSVKGRFTISRDNSKNTLYLQMNSLRAEDTAVYYCARGGRYCSSISCYARSGCDYWGQGTLVTVSS
VL: AIQMTQSPSSLSASVGDRVTITCRASQSISNYLNWYQQKPGKAPKLLIYAASSLQSGVPSRFSGSGSGTDFTLTISSLQPEDFATYYCQQSYSSPSTTFGQGTKLEIK
- % Inhibition (constitutive activity); 1 µg/mL 5C9 IgG [1]: 45.9%
- % Inhibition (constitutive activity); 2 µg/mL 5C9 IgG [1]: 45.3%
- % Inhibition; 5C9 IgG 0.01 µg/mL + T11 [1]: 4.3%
- % Inhibition; 5C9 IgG 0.1 µg/mL + T11 [1]: 19.8%
- % Inhibition; 5C9 IgG 1 µg/mL + T11 [1]: 23%
- % Inhibition; 5C9 IgG 10 µg/mL + T11 [1]: 13.9%
- % Inhibition; 5C9 IgG 100 µg/mL + T11 [1]: 11.1%
- % Inhibition; pTSH 3 ng/mL + 0.001 µg/mL 5C9 [1]: 0.2%
- % Inhibition; pTSH 3 ng/mL + 0.01 µg/mL 5C9 [1]: 0%
- % Inhibition; pTSH 3 ng/mL + 0.1 µg/mL 5C9 [1]: 78.7%
- % Inhibition; pTSH 3 ng/mL + 1 µg/mL 5C9 [1]: 93.5%
- % Inhibition; pTSH 3 ng/mL + 10 µg/mL 5C9 [1]: 98%
- % Inhibition; pTSH 3 ng/mL + 100 µg/mL 5C9 [1]: 99.2%
- Cyclic AMP concentration; 100 µg/mL 5C9 alone [1]: 0.2 pmol/mL
- Cyclic AMP concentration; 5C9 IgG 0.01 µg/mL + T11 [1]: 24.1 pmol/mL
- Cyclic AMP concentration; 5C9 IgG 0.1 µg/mL + T11 [1]: 20.2 pmol/mL
- Cyclic AMP concentration; 5C9 IgG 1 µg/mL + T11 [1]: 19.4 pmol/mL
- Cyclic AMP concentration; 5C9 IgG 10 µg/mL + T11 [1]: 21.7 pmol/mL
- Cyclic AMP concentration; 5C9 IgG 100 µg/mL + T11 [1]: 22.4 pmol/mL
- Cyclic AMP concentration; 5C9 IgG 100 µg/mL alone [1]: 0.9 pmol/mL
- Cyclic AMP concentration; pTSH 3 ng/mL + 0.001 µg/mL 5C9 [1]: 64.1 pmol/mL
- Cyclic AMP concentration; pTSH 3 ng/mL + 0.01 µg/mL 5C9 [1]: 64.6 pmol/mL
- Cyclic AMP concentration; pTSH 3 ng/mL + 0.1 µg/mL 5C9 [1]: 13.7 pmol/mL
- Cyclic AMP concentration; pTSH 3 ng/mL + 1 µg/mL 5C9 [1]: 4.2 pmol/mL
- Cyclic AMP concentration; pTSH 3 ng/mL + 10 µg/mL 5C9 [1]: 1.3 pmol/mL
- Cyclic AMP concentration; pTSH 3 ng/mL + 100 µg/mL 5C9 [1]: 0.5 pmol/mL
- Cyclic AMP production (constitutive activity); 0.1 µg/mL 5C9 IgG [1]: 68.2 pmol/mL
- Cyclic AMP production (constitutive activity); 0.2 µg/mL 5C9 IgG [1]: 58.8 pmol/mL
- Cyclic AMP production (constitutive activity); 1 µg/mL 5C9 IgG [1]: 31.4 pmol/mL
- Cyclic AMP production (constitutive activity); 2 µg/mL 5C9 IgG [1]: 31.8 pmol/mL
- % Inhibition; T1 serum + 100 µg/mL 5C9 IgG [2]: 98.7%
- % Inhibition; T2 serum + 100 µg/mL 5C9 IgG [2]: 98.2%
- % Inhibition; T3 serum + 100 µg/mL 5C9 IgG [2]: 97.8%
- Cyclic AMP concentration; 100 µg/mL 5C9 IgG alone [2]: 1 pmol/mL
- Cyclic AMP concentration; HBD + 100 µg/mL 5C9 IgG [2]: 0.9 pmol/mL
- Cyclic AMP concentration; T1 serum + 100 µg/mL 5C9 IgG [2]: 1.3 pmol/mL
- Cyclic AMP concentration; T2 serum + 100 µg/mL 5C9 IgG [2]: 1.1 pmol/mL
- Cyclic AMP concentration; T3 serum + 100 µg/mL 5C9 IgG [2]: 1.4 pmol/mL
- % Inhibition of M22 IgG (3 ng/mL) stimulation; 0.001 µg/ml 5C9 IgG [3]: 0%
- % Inhibition of M22 IgG (3 ng/mL) stimulation; 0.01 µg/ml 5C9 IgG [3]: 0%
- % Inhibition of M22 IgG (3 ng/mL) stimulation; 0.1 µg/ml 5C9 IgG [3]: 91.2%
- % Inhibition of M22 IgG (3 ng/mL) stimulation; 0.5 µg/ml 5C9 IgG [3]: 97%
- % Inhibition of M22 IgG (3 ng/mL) stimulation; 1 µg/ml 5C9 IgG [3]: 97.6%
- % Inhibition of M22 IgG (3 ng/mL) stimulation; 5 µg/ml 5C9 IgG [3]: 99.4%
- % Inhibition of M22 IgG (3 ng/mL) stimulation; 10 µg/ml 5C9 IgG [3]: 99.1%
- % Inhibition of M22 IgG (3 ng/mL) stimulation; 50 µg/ml 5C9 IgG [3]: 99.1%
- % Inhibition of M22 IgG (3 ng/mL) stimulation; 100 µg/ml 5C9 IgG [3]: 98.8%
- Cyclic AMP concentration; 3 ng/mL M22 IgG + 0.001 µg/ml 5C9 IgG [3]: 39.3 pmol/mL
- Cyclic AMP concentration; 3 ng/mL M22 IgG + 0.01 µg/ml 5C9 IgG [3]: 42.3 pmol/mL
- Cyclic AMP concentration; 3 ng/mL M22 IgG + 0.1 µg/ml 5C9 IgG [3]: 2.9 pmol/mL
- Cyclic AMP concentration; 3 ng/mL M22 IgG + 0.5 µg/ml 5C9 IgG [3]: 1 pmol/mL
- Cyclic AMP concentration; 3 ng/mL M22 IgG + 1 µg/ml 5C9 IgG [3]: 0.8 pmol/mL
- Cyclic AMP concentration; 3 ng/mL M22 IgG + 5 µg/ml 5C9 IgG [3]: 0.2 pmol/mL
- Cyclic AMP concentration; 3 ng/mL M22 IgG + 10 µg/ml 5C9 IgG [3]: 0.3 pmol/mL
- Cyclic AMP concentration; 3 ng/mL M22 IgG + 50 µg/ml 5C9 IgG [3]: 0.3 pmol/mL
- Cyclic AMP concentration; 3 ng/mL M22 IgG + 100 µg/ml 5C9 IgG [3]: 0.4 pmol/mL
- Cyclic AMP concentration; 5C9 IgG 100 µg/mL alone [3]: 0.5 pmol/mL
- Mean absorbance at 405 nm (absorbance at 405 nm) (TSHR260-AP (human) [4]): -0.003
- Mean absorbance at 405 nm (absorbance at 405 nm) (TSHR260-AP (human) [5]): 0.099
- Mean absorbance at 405 nm (absorbance at 405 nm) [6]: 0.004
